Tests used:
[1] = target: human GPC3 (Gln25-His559)-His protein (Acro, Cat. No. GP3-H52H4) (human) (UniProt P51654); experiment: ELISA; antibody 100 nM
[2] = target: human GPC3 (Gln25-His559)-His protein (Acro, Cat. No. GP3-H52H4) (human) (UniProt P51654); experiment: ELISA; antibody 0.1 nM
[3] = target: monkey GPC3-His protein (Acro, Cat. No. GP3-05225) (monkey) (UniProt A5A6P7); experiment: ELISA; antibody 0.1 nM
[4] = target: human GPC3 (Gln25-His559)-His protein (Acro, Cat. No. GP3-H52H4) (human) (UniProt P51654); experiment: ELISA; antibody 1 nM
[5] = target: monkey GPC3-His protein (Acro, Cat. No. GP3-05225) (monkey) (UniProt A5A6P7); experiment: ELISA; antibody 1 nM
[6] = target: mouse GPC3-His protein (Sino Biological, Cat. No. 50989-M08B) (mouse) (UniProt Q8CFZ4); experiment: ELISA; antibody 1 nM
UniProt Q8CFZ4, sequence (Q8CFZ4 25-558 limits assumed): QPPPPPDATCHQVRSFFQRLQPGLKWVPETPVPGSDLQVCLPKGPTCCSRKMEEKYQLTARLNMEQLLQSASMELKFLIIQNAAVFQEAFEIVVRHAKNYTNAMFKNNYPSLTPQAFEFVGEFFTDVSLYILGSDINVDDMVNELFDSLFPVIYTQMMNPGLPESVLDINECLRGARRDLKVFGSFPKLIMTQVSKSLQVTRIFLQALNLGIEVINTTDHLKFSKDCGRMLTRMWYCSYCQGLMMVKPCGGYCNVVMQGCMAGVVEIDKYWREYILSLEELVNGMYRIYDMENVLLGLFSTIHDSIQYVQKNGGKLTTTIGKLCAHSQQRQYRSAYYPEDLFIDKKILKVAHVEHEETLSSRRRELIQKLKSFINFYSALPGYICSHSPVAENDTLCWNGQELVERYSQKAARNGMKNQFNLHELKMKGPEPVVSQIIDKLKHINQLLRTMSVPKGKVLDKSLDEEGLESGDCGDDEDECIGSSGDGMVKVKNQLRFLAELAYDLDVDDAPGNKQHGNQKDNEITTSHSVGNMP

[7] = target: human GPC3 on cells (HepG2 endogenous; CHO-K1 recombinant clones CHOK1-hGPC3.1C3, 2B5, 3E9) (human) (UniProt P51654); experiment: FACS on CHOK1-hGPC3.1C3 cells
[8] = target: human GPC3 (Gln25-His559)-His protein (Acro, Cat. No. GP3-H52H4) (human) (UniProt P51654); experiment: ELISA; antibody 0.1 nM; remark: listed apart in the source
[9] = target: human GPC3 on cells (HepG2 endogenous; CHO-K1 recombinant clones CHOK1-hGPC3.1C3, 2B5, 3E9) (human) (UniProt P51654); experiment: FACS on CHOK1-hGPC3.3E9 cells
[10] = target: human GPC3 (Gln25-His559)-His protein (Acro, Cat. No. GP3-H52H4) (human) (UniProt P51654); experiment: ELISA; antibody 10 nM
[11] = target: human GPC3 (Gln25-His559)-His protein (Acro, Cat. No. GP3-H52H4) (human) (UniProt P51654); experiment: ELISA; antibody 0.0001 nM
[12] = target: human GPC3 (Gln25-His559)-His protein (Acro, Cat. No. GP3-H52H4) (human) (UniProt P51654); experiment: ELISA; antibody 0.01 nM
[13] = target: mouse GPC3-His protein (Sino Biological, Cat. No. 50989-M08B) (mouse) (UniProt Q8CFZ4); experiment: ELISA; antibody 0.01 nM
[14] = target: human GPC3 (Gln25-His559)-His protein (Acro, Cat. No. GP3-H52H4) (human) (UniProt P51654); experiment: ELISA; antibody 1 nM; remark: listed apart in the source
[15] = target: human GPC3 (Gln25-His559)-His protein (Acro, Cat. No. GP3-H52H4) (human) (UniProt P51654); experiment: ELISA; antibody 10 nM; remark: listed apart in the source
[16] = target: monkey GPC3-His protein (Acro, Cat. No. GP3-05225) (monkey) (UniProt A5A6P7); experiment: ELISA; antibody 10 nM
[17] = target: mouse GPC3-His protein (Sino Biological, Cat. No. 50989-M08B) (mouse) (UniProt Q8CFZ4); experiment: ELISA; antibody 10 nM
[18] = target: human GPC3 (Gln25-His559)-His protein (Acro, Cat. No. GP3-H52H4) (human) (UniProt P51654); experiment: ELISA; antibody 0.001 nM
[19] = target: monkey GPC3-His protein (Acro, Cat. No. GP3-05225) (monkey) (UniProt A5A6P7); experiment: ELISA; antibody 0.001 nM
[20] = target: mouse GPC3-His protein (Sino Biological, Cat. No. 50989-M08B) (mouse) (UniProt Q8CFZ4); experiment: ELISA; antibody 0.001 nM
[21] = target: human GPC3 (Gln25-His559)-His protein (Acro, Cat. No. GP3-H52H4) (human) (UniProt P51654); experiment: ELISA; antibody 0.001 nM; remark: listed apart in the source
[22] = target: human GPC3 on cells (HepG2 endogenous; CHO-K1 recombinant clones CHOK1-hGPC3.1C3, 2B5, 3E9) (human) (UniProt P51654); experiment: FACS on CHOK1-hGPC3.2B5 cells
[23] = target: human GPC3 on cells (HepG2 endogenous; CHO-K1 recombinant clones CHOK1-hGPC3.1C3, 2B5, 3E9) (human) (UniProt P51654); experiment: FACS on HepG2 cells
[24] = target: human GPC3 (Gln25-His559)-His protein (Acro, Cat. No. GP3-H52H4) (human) (UniProt P51654); experiment: ELISA; antibody 100 nM; remark: listed apart in the source
[25] = target: monkey GPC3-His protein (Acro, Cat. No. GP3-05225) (monkey) (UniProt A5A6P7); experiment: ELISA; antibody 100 nM
[26] = target: mouse GPC3-His protein (Sino Biological, Cat. No. 50989-M08B) (mouse) (UniProt Q8CFZ4); experiment: ELISA; antibody 100 nM
[27] = target: human GPC3 on cells (HepG2 endogenous; CHO-K1 recombinant clones CHOK1-hGPC3.1C3, 2B5, 3E9) (human) (UniProt P51654); experiment: FACS on HepG2 cells; remark: listed apart in the source
[28] = target: human GPC3 (Gln25-His559)-His protein (Acro, Cat. No. GP3-H52H4) (human) (UniProt P51654); experiment: ELISA; antibody 0.01 nM; remark: listed apart in the source
[29] = target: human GPC3 on cells (HepG2 endogenous; CHO-K1 recombinant clones CHOK1-hGPC3.1C3, 2B5, 3E9) (human) (UniProt P51654); experiment: FACS on CHO-K1-human GPC3 cells
[30] = target: monkey GPC3 on HEK293T cells (monkey); experiment: FACS on HEK293T-monkey GPC3 cells
monkey GPC3 on HEK293T cells (monkey), sequence (chain, as listed by the source limits assumed): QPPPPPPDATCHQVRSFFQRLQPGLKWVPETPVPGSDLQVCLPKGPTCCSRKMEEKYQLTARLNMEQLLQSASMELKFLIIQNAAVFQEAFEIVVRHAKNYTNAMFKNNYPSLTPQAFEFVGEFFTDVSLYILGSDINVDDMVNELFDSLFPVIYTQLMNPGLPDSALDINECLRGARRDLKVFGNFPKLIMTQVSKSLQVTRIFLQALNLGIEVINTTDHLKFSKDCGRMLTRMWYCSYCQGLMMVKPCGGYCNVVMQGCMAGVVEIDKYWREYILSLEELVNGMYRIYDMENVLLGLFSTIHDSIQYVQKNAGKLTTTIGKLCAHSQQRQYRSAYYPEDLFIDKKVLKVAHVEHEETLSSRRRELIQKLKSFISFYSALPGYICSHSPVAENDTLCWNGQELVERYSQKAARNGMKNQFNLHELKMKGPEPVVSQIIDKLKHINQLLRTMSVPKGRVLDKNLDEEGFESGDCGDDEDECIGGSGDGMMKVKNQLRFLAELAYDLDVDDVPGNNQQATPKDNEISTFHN

[31] = target: human GPC3 (Gln25-His559)-His protein (Acro, Cat. No. GP3-H52H4) (human) (UniProt P51654); experiment: ELISA; antibody 0.0001 nM; remark: listed apart in the source
[32] = target: monkey GPC3-His protein (Acro, Cat. No. GP3-05225) (monkey) (UniProt A5A6P7); experiment: ELISA; antibody 0.0001 nM
[33] = target: mouse GPC3-His protein (Sino Biological, Cat. No. 50989-M08B) (mouse) (UniProt Q8CFZ4); experiment: ELISA; antibody 0.0001 nM

UniProt A5A6P7, sequence (A5A6P7 other isoform, or with tags, fused parts or gaps limits assumed): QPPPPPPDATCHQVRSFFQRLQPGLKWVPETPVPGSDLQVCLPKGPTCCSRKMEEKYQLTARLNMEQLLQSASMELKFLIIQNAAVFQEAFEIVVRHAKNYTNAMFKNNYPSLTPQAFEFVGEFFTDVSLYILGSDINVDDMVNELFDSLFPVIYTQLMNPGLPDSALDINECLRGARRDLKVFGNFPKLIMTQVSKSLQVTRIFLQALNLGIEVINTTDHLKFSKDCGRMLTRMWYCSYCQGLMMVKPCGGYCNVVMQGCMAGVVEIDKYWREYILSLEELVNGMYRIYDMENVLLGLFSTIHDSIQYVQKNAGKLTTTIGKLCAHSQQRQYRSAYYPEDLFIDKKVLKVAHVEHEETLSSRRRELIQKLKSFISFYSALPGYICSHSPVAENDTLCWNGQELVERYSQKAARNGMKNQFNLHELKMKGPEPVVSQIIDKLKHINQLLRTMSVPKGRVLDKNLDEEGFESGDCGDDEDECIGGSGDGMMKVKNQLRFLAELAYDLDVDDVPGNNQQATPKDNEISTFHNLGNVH

human IgG1 (IgG subtype control) (antibody)
OD450 [1]: 0.44
OD450 [2]: 0.06
OD450 [3]: 0.045
OD450 [4]: 0.048
OD450 [5]: 0.044
OD450 [6]: 0.05
Mean fluorescence density of cells [7]: 19.3
OD450 [8]: 0.05
Mean fluorescence density of cells [9]: 19.3
OD450 [10]: 0.1
OD450 [11]: 0.047
OD450 [12]: 0.06
OD450 [13]: 0.052
OD450 [14]: 0.06
OD450 [15]: 0.05
OD450 [16]: 0.047
OD450 [17]: 0.055
OD450 [18]: 0.06
OD450 [19]: 0.044
OD450 [20]: 0.051
OD450 [21]: 0.048
Mean fluorescence density of cells [22]: 19.3
Max MFI [23]: 124
OD450 [24]: 0.072
OD450 [25]: 0.056
OD450 [26]: 0.105
Max MFI [27]: 155
OD450 [28]: 0.048
Max MFI [29]: 88
Max MFI [30]: 107
OD450 [31]: 0.06
OD450 [32]: 0.048
OD450 [33]: 0.049
